Source: US20120288474A1, “COMPOSITION FOR TREATMENT OF CXCL8-MEDIATED LUNG INFLAMMATION” (PROTAFFIN BIOTECHNOLOGIE AG, priority 2009, published 2012)

Key:
Assay type in all cases: in vivo
[1] = system: C57BL/6J female mice exposed to cigarette smoke; assay: Acute model of cigarette smoke induced lung inflammation, four-day exposure (Example 3)
Procedure: Lung inflammation was induced in C57BL/6J female mice (a susceptible strain) by exposure to cigarette smoke of 4 to 6 cigarette over a four-day period. Dose response activity of subcutaneous PA401 treatment at the doses of 4, 40 and 400 μg/kg administered at t=+30 min and t=+6 h from smoke exposure, on cell infiltrates on bronchoalveolar lavages was evaluated 24 h after last cigarette smoke exposure. Air exposed, and Roflumilast (5 mg/kg oral) treated animals serve as controls.

[2] = system: C57BL/6J female mice exposed to cigarette smoke; assay: Sub-chronic model of cigarette smoke induced lung inflammation, eleven-day exposure, dose frequency (Example 4)
Procedure: In this study lung inflammation was induced in C57BL/6J female mice by exposure to cigarette smoke of 4 to 6 cigarettes over an eleven-day period. Dose frequency activity of subcutaneous PA401 treatment at the optimal dose of 400 μg/kg, based on the study in example 3, administered at t=+30 min and t=+6 h from smoke exposure (twice a day: b.i.d.), once daily at +3 h (q.d) and every other day (q.o.d) at +3 h, on cell infiltrates on bronchoalveolar lavages was evaluated 24 h after last cigarette smoke exposure. Air exposed, and Roflumilast (5 mg/kg oral) treated animals serve as controls.

[3] = system: C57BL/6J female mice exposed to cigarette smoke; assay: Sub-chronic model of cigarette smoke induced lung inflammation, eleven-day exposure, 400 vs 40 μg/kg (Example 5)
Procedure: In this study lung inflammation was induced in C57BL/6J female mice by exposure to cigarette smoke of 4 to 6 cigarettes over an eleven-day period. PA401 at the dose of 400 μg/kg daily subcutaneous was compared to the dose of 40 μg/kg daily subcutaneous. Treatment was performed at t+3 h and effects on cell infiltrates on bronchoalveolar lavages were evaluated 24 h after last cigarette smoke exposure. Air exposed, Roflumilast (5 mg/kg oral) treated animals as well as animals treated with the CXCR2 antagonist SCH527123 (10 mg/kg twice a day oral-total daily dose 20 mg/kg) serve as controls.

[4] = system: male Balb/c mice aerosolized with LPS; assay: LPS aerosol acute lung inflammation, s.c. or i.v. treatment (Example 2)
Procedure: A second study was performed using a slightly different model, which imply a different mouse strain and gender (male Balb/c instead of C57BL/6) a different LPS strain and serotype (Salmonella enterica instead of E. Coli) and a different LPS administration (aerosol—3.5 mg/7 mL over 30 min—instead of intranasal). PA401 doses of 4, 40 and 400 μg/kg were administered either by s.c. or i.v. route at t=−5 and t=+3 h from LPS exposure. BAL total and differential cell count were evaluated at t=8 h, a later time point compared to the previous study.
Saline aerosolized mice and mice receiving an intra tracheal administration of Dexamethasone (20 μg/20 ∥l/mouse at t=−1 h) were used as control.

[5] = system: C57BL/6J female mice intranasal instilled with LPS; assay: LPS-induced acute lung inflammation, intranasal LPS instillation (Example 1)
Procedure: To assess potential of PA401 as anti-inflammatory in models of acute lung neutrophilia, a dose-response study with subcutaneous administration of PA401 at doses of 4, 40, 200 and 400 μg/Kg in C57BL/6J female mice intranasal instilled with LPS (0.3 μg/mouse, serotype […]) was performed. Sham instilled (saline) and Dexamethasone 3 mg/kg s.c. (administered at t=−1 h before LPS instillation) treated animals were used as controls. Bronchoalveolar lavage (BAL) was performed 4 h post LPS instillation and total cell count on BAL samples, as well as differential cell count on BAL cytospin were measured.

[6] = system: male Balb/c mice exposed to LPS aerosol; assay: LPS aerosol lung inflammation, intra-tracheal local delivery to the lung (Example 6)
Procedure: In this experiment lung inflammation was induced by the delivery of LPS by aerosol (Salmonella enterica, 3.5 mg/7 mL over 30 min) in male Balb/c mice. PA401 was administered intra-tracheally (i.t.) using a MicroSprayer (FJM-250 syringe; PennCentury), a device that allows delivery of a plume of aerosol (mass median diameter 16-22 μm) directly into the lungs. PA401 i.t. administration was performed at the doses of 100, 40, 10 and 4 μg/kg either 1 h before LPS exposure, or 1 h after the end of LPS exposure. Bronchoalveolar lavage (BAL) was performed 8 h post LPS exposure and total cell and neutrophil numbers were measured. Dexamethasone 20 μg/20 μl mouse i.t. was used as reference compound.

[7] = 400 μg/kg s.c., all treatment frequencies (b.i.d., q.d., q.o.d.)
[8] = 400 μg/kg s.c., b.i.d. and q.d.
[9] = s.c. 4-400 μg/Kg, BAL cytospin 4 h post LPS
[10] = i.t. 100, 40, 10 and 4 μg/kg, 1 h before or 1 h after LPS, BAL 8 h post LPS

B1: PA401: del6F17KF21KE70KN71K IL-8 mutant; modified IL-8 with increased GAG binding affinity and down-regulated GPCR activity (protein, UniProt P10145 23-99, looked up, variant del1-6 F17K F21K E70K N71K)
Interleukin-8: AVLPRCQCIKTYSKPKHPKKIKELRVIESGPHCANTEIIVKLSDGRELCLDPKENWVQRVVEKFLKRAKKS
[1]; 4 and 40 μg/kg s.c.
  cell subtypes (neutrophil, macrophage, epithelial cells, lymphocyte) in BAL at the other two doses: Significant effect on most of these cell subtypes
[1]; 40 and 400 μg/kg s.c.
  total cell infiltrates in BAL: Highly significant effect
[1]; PA401 400 μg/kg s.c., Roflumilast 5 mg/kg oral
  inhibitory effect compared with Roflumilast 5 mg/kg: comparable of that obtained with Roflumilast 5 mg/kg
[1]; highest dose (400 μg/kg s.c.)
  epithelial cells numbers in BAL: significantly reduced
  lymphocyte numbers in BAL: significantly reduced
  macrophage numbers in BAL: significantly reduced
  neutrophil numbers in BAL: significantly reduced
[1]; s.c. 4, 40 and 400 μg/kg at +30 min and +6 h, BAL 24 h after last exposure
  cigarette smoke induced increase in total cell number recovered in the BAL: dose dependently inhibited
[2]; 400 μg/kg s.c. twice a day, daily and every other day, 11-day smoke
  total cell infiltrates in BAL: Significant effect
[2]; [7]
  epithelial cells numbers in BAL: significantly reduced
  neutrophil numbers in BAL: significantly reduced
[2]; [8]
  lymphocyte numbers in BAL: significant reduction
  macrophage numbers in BAL: significant reduction
[2]; 400 μg/kg subcutaneously, 11-day repeated exposure
  activity on mixed cell infiltration, twice a day vs once a day: comparable activity
[2]; PA401 400 μg/kg s.c. twice and once a day, Roflumilast 5 mg/kg oral
  inhibitory effect compared with Roflumilast 5 mg/kg: comparable of that obtained with Roflumilast 5 mg/kg
[3]; 400 and 40 μg/kg daily s.c.
  epithelial cells numbers in BAL: significant reduction
  lymphocyte numbers in BAL: significant reduction
  macrophage numbers in BAL: significant reduction
  neutrophil numbers in BAL: significant reduction
[3]; 400 and 40 μg/kg daily s.c., 11-day smoke
  total cell infiltrates in BAL: Significant effect
[3]; PA401 400 μg/kg daily s.c., Roflumilast 5 mg/kg oral, SCH527123 10 mg/kg twice a day oral
  inhibitory effect compared with Roflumilast and CXCR2 antagonist SCH527123: comparable of that obtained with Roflumilast 5 mg/kg and the CXCR2 antagonist SCH527123
[4]; 4, 40 and 400 μg/kg s.c. or i.v. at t=-5 and t=+3 h from LPS, BAL at t=8 h
  number of total cells in the BAL: highly significant reduction
[4]; 4, 40 and 400 μg/kg s.c. or i.v., BAL at t=8 h
  neutrophils count in the BAL: reduction
[4]; PA401 i.v., Dexamethasone 20 μg/mouse i.t. at t=-1 h
  inhibitory effect compared with intra tracheal dexamethasone: reaching the same inhibitory effects of intra tracheal administration of dexamethasone
[4]; i.v. vs s.c., BAL at t=8 h
  activity by route of administration (intravenous vs subcutaneous): more significant when administered by intravenous than by subcutaneous route
[5]; PA401 200 and 400 μg/kg s.c., Dexamethasone 3 mg/kg s.c.
  inhibition of cell infiltration in the BAL compared with Dexamethasone 3 mg/kg: comparable to that obtained with the treatment with a high dose of Dexamethasone
[5]; s.c. 4, 40, 200 and 400 μg/Kg, BAL 4 h post LPS instillation
  total number of cells infiltrated in lung as assessed in the BAL fluid: dose-dependent reduction
[5]; [9]
  number of lymphocytes in BAL: significant reduction
  number of neutrophils in BAL: significant reduction
[5]; s.c., BAL 4 h post LPS
  lowest dose with significant effect on neutrophils and lymphocytes: 4 µg/kg
[6]; [10]
  neutrophil number in BAL: neutrophil number reduction
  total cells in BAL: significant dose dependent reduction
[6]; i.t. doses of 100, 40 and 10 μg/kg
  activity on BAL cell counts at single doses: significantly active
[6]; i.t., BAL 8 h post LPS
  improved activity of therapeutic treatment (t=+1 h) compared to prophylactic treatment (-1 h): about 10%
